Positions count from the first letter of the chain named.
B1: DARPin08-GSGSC-DTPA (designed binder)
chain: DLGTQLLRAAESGQLDEVRELLKAGADVNAQDEYGLTPLYLATAHGHLEIVTVLLEAGADVNAQDAIGFTPLHLAAFIGHLEIATVLLEAGADVNAQDKFGKTPADIAAGAGNEDIAEVLQKAAGSGSC
modifications: maleimide-DTPA coupled to the C-terminal Cys of the GSGSC tag
notes: Charge variant of DARPin06; His-TEV tag cleaved off; possible N-terminal GS not included; also called construct 8
B2: DARPin06-GSGSC-DTPA (designed binder)
chain: DLGKKLLEAARAGQDDEVRELLKAGADVNAKDEYGLTPLYLATAHGHLEIVEVLLKAGADVNAVDAIGFTPLHLAAFIGHLEIAEVLLKAGADVNAQDKFGKTPADIAAGAGNEDIAEVLQKAAGSGSC
modifications: maleimide-DTPA coupled to the C-terminal Cys of the GSGSC tag
notes: Parent; also called construct 6; DTPA coupled parental DARPin06
B3: DARPin14-GSGSC-DTPA (designed binder)
chain: B1 chain with R8E, K23Q
modifications: maleimide-DTPA coupled to the C-terminal Cys of the GSGSC tag
notes: Charge variant derived from DARPin06; His-TEV tag cleaved off; possible N-terminal GS not included; also called construct 14
B4: DARPin15-GSGSC-DTPA (designed binder)
chain: B1 chain with K99N, K102T, K122Q
modifications: maleimide-DTPA coupled to the C-terminal Cys of the GSGSC tag
notes: Charge variant derived from DARPin06; His-TEV tag cleaved off; possible N-terminal GS not included; also called construct 15
B5: DARPin13-GSGSC-DTPA (designed binder)
chain: B1 chain with R8Q, R19H, E20D, K23Q
modifications: maleimide-DTPA coupled to the C-terminal Cys of the GSGSC tag
notes: Charge variant derived from DARPin06; His-TEV tag cleaved off; possible N-terminal GS not included; also called construct 13
B6: DARPin16-GSGSC-DTPA (designed binder)
chain: B1 chain with R8E, K102T
modifications: maleimide-DTPA coupled to the C-terminal Cys of the GSGSC tag
notes: Charge variant derived from DARPin06; His-TEV tag cleaved off; possible N-terminal GS not included; also called construct 16
B7: DARPin11-GSGSC-DTPA (designed binder)
chain: DLGIKLLFAAAKGQDDEVRELLKAGADVNAKDFQGVTPLHIAAQSGHLEIVEVLLKAGADVNAKDVTGDTPLHLAAQHGHLEIVEVLLKAGADVNAQDERGWTPADLAADWGHEDIAEVLQKAAGSGSC
modifications: maleimide-DTPA coupled to the C-terminal Cys of the GSGSC tag
notes: Parent; His-TEV tag cleaved off; possible N-terminal GS not included; also called construct 11; DTPA coupled parental DARPin11
B8: DARPin10-GSGSC-DTPA (designed binder)
chain: B1 chain with R8Q, E17T, E49Q, T52R, E56Q, E89K, G110T, E114Q, D115Q, E118S
modifications: maleimide-DTPA coupled to the C-terminal Cys of the GSGSC tag
notes: Charge variant of DARPin06; His-TEV tag cleaved off; possible N-terminal GS not included; also called construct 10
B9: DARPin12-GSGSC-DTPA (designed binder)
chain: DLGIQLLFAAAKGQLDTVRTLLQAGADVNAKDFQGVTPLHIAAQSGHLQIVEVLLQAGADVNAKDVTGDTPLHLAAQHGHLQIVTVLLQAGADVNAQDERGWTPADLAADWGNQQIAEVLQQAAGSGSC
modifications: maleimide-DTPA coupled to the C-terminal Cys of the GSGSC tag
notes: Charge variant of DARPin11; His-TEV tag cleaved off; possible N-terminal GS not included; also called construct 12
B10: DARPin07-GSGSC-DTPA (designed binder)
chain: DLGTQLLRAAESGQLDTVRTLLKAGADVNAKDEYGLTPLYLATAHGHLQIVRVLLQAGADVNAKDAIGFTPLHLAAFIGHLKIAEVLLKAGADVNAQDKFGKTPAQIAATAGNQQIASVLQKAAGSGSC
modifications: maleimide-DTPA coupled to the C-terminal Cys of the GSGSC tag
notes: Charge variant of DARPin06 (negative control for kidney uptake, higher pI); His-TEV tag cleaved off; possible N-terminal GS not included; also called construct 7
B11: DARPin09-GSGSC-DTPA (designed binder)
chain: B10 chain with R8Q, K31Q, R52Q, Q56S, K64Q, K82Q, E85Q, K89S, K102T, K122Q
modifications: maleimide-DTPA coupled to the C-terminal Cys of the GSGSC tag
notes: Charge variant of DARPin06; His-TEV tag cleaved off; possible N-terminal GS not included; also called construct 9
B12: parental DARPin06 (designed binder)
chain: DLGKKLLEAARAGQDDEVRELLKAGADVNAKDEYGLTPLYLATAHGHLEIVEVLLKAGADVNAVDAIGFTPLHLAAFIGHLEIAEVLLKAGADVNAQDKFGKTPADIAAGAGNEDIAEVLQKAA

Molecular target: T1, biotinylated full-length HER2 (human, UniProt P04626 23-652, limits assumed, biotinylated (site not stated))
T1 construct: Immobilised on the SPR chip; also called bio-HER2; Human Epidermal Growth Factor Receptor 2
Test: SPR multi-trace, biotinylated HER2 on chip, analyte 0.617-50 nM, global 1:1 Langmuir fit
Excerpt: (§1) FIGS. 9A-9F: Multi-trace SPR profiles of DTPA-coupled DARPins (also referred to as constructs, see Tables 7 and 16) against biotinylated full-length HER2. FIGS. 9A, 9B, 9C, 9D, 9E, and 9F show the profiles of construct 6 (DARPin06-GSGSC-DTPA), construct 8 (DARPin08-GSGSC-DTPA), construct 13 (DARPin13-GSGSC-DTPA), construct 14 (DARPin14-GSGSC-DTPA), construct 15 (DARPin15-GSGSC-DTPA) and construct 16 (DARPin16-GSGSC-DTPA), respectively. The GSGSC tag (SEQ ID NO: 14) was fused to the C-terminal end of the DARPins. Three-fold dilutions of the analytes (50, 16.667, 5.556, 1.852 and 0.617 nM) were injected for 300s, dissociation was recorded for 1500s (25 ul/min). Each injection was followed by a regeneration step with glycine pH 2.0 for 60s. Dissociation constants (KD) were calculated from the globally fitted on- and off-rates using standard 1:1-Langmuir model (see Table 17).
(§2) Binding kinetics of the constructs to the target protein HER2 was measured in a multi-trace SPR assay. A new Xantec NAHLC200M chip was conditioned according to the manufacturer's protocol. The chip was coated with biotinylated target (bio-HER2, 10 ug/mL) for 900s to reach a signal intensity of approximately 1200-1300 RU. Three-fold dilutions of the analytes (50, 16.667, 5.556, 1.852 and 0.617 nM) were injected for 300s, dissociation was recorded for 1500s (25 ul/min). Each injection was followed by a regeneration step with glycine pH 2.0 for 60s. The signals (i.e. resonance unit (RU) values) of empty surface and a reference injection (i.e. injection of running buffer only) were subtracted from the RU traces obtained injecting the constructs (double-referencing). Dissociation constants (KD) were calculated from the globally fitted on- and off-rates using standard 1:1-Langmuir model.

| Kd | koff | kon | Binder |
| --- | --- | --- | --- |
| 0.17 nM | 8.82e-05 s⁻¹ | 521000 M⁻¹ s⁻¹ | B1 |
| 0.216 nM | 0.000141 s⁻¹ | 653000 M⁻¹ s⁻¹ | B2 |
| 0.23 nM | 0.000121 s⁻¹ | 524000 M⁻¹ s⁻¹ | B3 |
| 0.637 nM | 0.000214 s⁻¹ | 336000 M⁻¹ s⁻¹ | B4 |
| 0.357 nM | 0.000138 s⁻¹ | 386000 M⁻¹ s⁻¹ | B5 |
| 0.615 nM | 0.00026 s⁻¹ | 422000 M⁻¹ s⁻¹ | B6 |

Molecular target: T1, biotinylated full-length HER2
Test: SPR, single trace, 500 nM analyte over biotinylated HER2 on the chip, double-referenced, 1:1 Langmuir fit [continued]
Excerpt: (§3) FIG. 4: Single-trace SPR profiles of DTPA-coupled DARPins (also referred to as constructs, see Table 7) against biotinylated full-length HER2. As reference, plots 1 and 2 show the profiles of the HER2-binding parental DARPin06 (SEQ ID NO: 6) and DARPin11 (SEQ ID NO: 11), respectively. Plots 3, 4, 5, 6 and 7 show the profiles of construct 6 (DARPin06-GSGSC-DTPA), construct 7 (DARPin07-GSGSC-DTPA), construct 8 (DARPin08-GSGSC-DTPA), construct 9 (DARPin09-GSGSC-DTPA) and construct 10 (DARPin10-GSGSC-DTPA), respectively. Plots 8 and 9 show construct 11 (DARPin11-GSGSC-DTPA) and construct 12 (DARPin12-GSGSC-DTPA), respectively. The GSGSC tag (SEQ ID NO: 14) was fused to the C-terminal end of the DARPins. All analytes (500 nM) were injected in succession for 120s, dissociation was recorded for 180s (25 ul/min of PBS-Tween20 (0.005%)). Each injection was followed by a regeneration step with glycine pH2.0 for 60s. The data was double referenced (control spot and buffer injection) and fitted to a 1:1 Langmuir model.
A surface plasmon resonance (SPR) assay was used to determine if the charge-engineered DARPin variants derived from the parental DARPin06 (SEQ ID NO: 6) and DARPin11 (SEQ ID NO: 11) could still bind to HER2. All SPR data were generated using a Bruker Sierra SPR-32 instrument with PBS-T (0.005% Tween 20) as running buffer. A new Bruker BTC Chip was conditioned according to the manufacturer's protocol. The chip was coated with biotinylated target (bio-HER2) to reach a signal intensity of approximatively 600 RU. All analytes (500 nM) were injected in succession for 120s, dissociation was recorded for 180s (25 ul/min). Each injection was followed by a regeneration step with glycine pH 2.0 for 60s. The data was double referenced (control spot and buffer injection) and fitted to a 1:1 Langmuir model. […] A DTPA coupled DARPin is also referred to as a “construct”. SPR curves are shown in FIG. 4 where plots 1 and 2 show the profiles of the HER2-binding parental DARPin06 and DARPin11 (SEQ ID NOs: 6 and 11, respectively).

| Kd | Binder |
| --- | --- |
| 0.226 nM | B7 |
| 0.583 nM | B1 |
| 0.622 nM | B8 |
| 0.982 nM | B9 |
| 0.457 nM | B10 |
| 1.44 nM | B11 |

Molecular target: T1, biotinylated full-length HER2
Test: SPR, single trace, 500 nM analyte over biotinylated HER2 on the chip, double-referenced, 1:1 Langmuir fit
Excerpt: as §3
A surface plasmon resonance (SPR) assay was used to determine if the charge-engineered DARPin variants derived from the parental DARPin06 (SEQ ID NO: 6) and DARPin11 (SEQ ID NO: 11) could still bind to HER2. […] All analytes (500 nM) were injected in succession for 120s, dissociation was recorded for 180s (25 ul/min). […]

| Kd | Binder |
| --- | --- |
| 0.284 nM | B2 |
| 0.0575 nM | B12 |

Molecular target: T1, biotinylated full-length HER2
Test: SPR multi-trace, biotinylated HER2 on chip, analyte 0.617-50 nM, global 1:1 Langmuir fit
Remark: another data set of the same source
Excerpt: as §1, §2

| Kd | Binder |
| --- | --- |
| < 1 nM | B1 |
| < 1 nM | B3 |
| < 1 nM | B4 |
| < 1 nM | B5 |
| < 1 nM | B6 |

Source: US20240132546A1 (Molecular Partners, published 2024)
